Reference: paper PMC3852489

Biological target: S377-588-Fc (residues 377-588 of MERS-CoV spike protein fused with human IgG Fc) (MERS-CoV) (UniProt K9N5Q8)
Assay: SDS-PAGE of non-boiled against boiled sample

Substance: S377-588-Fc (residues 377-588 of MERS-CoV spike protein fused with human IgG Fc) (from UniProt K9N5Q8 377-588) (Fc fusion)
- stoichiometry N: 2
